Results from article PMC12450465, “Oligomerization and exocyst coupling underlie Spa2-mediated focusing of polarized growth in fission yeast” (Journal of Cell Science, 2025).
Blank lines part the entries; values can stand above or below the binder they belong to.

B1: His6–Pos1 (natural protein, S. pombe, UniProt O13743 1-269, looked up)
chain: MAFSPANSFLINKSICESKEVEPLEANLFGKLHNKLLICKAKKENLEKKLAYQMMYSKLLKSLPKLSSLEENKLTKLKAPIEDMENTKKELEEIRKQSTETELRYLKSLSNTLSFGTLSLSNEINKVGPSASFMLKEVHDSVQVLEQRLEKMGLIEKPSESSESSIYSILASLKHTNDSLQKKELSPHEIAESPSSHSTSPMGRNVDTETLSFLLIDWQRLCAEQNTFLRDITNNMSSSVPQDVLSQLRQFFFRSELLSDKLSNLCSES
notes: Pos1, S. pombe; also called His6-tagged Pos1; source: Rosetta2(DE3)pLysS bacteria (pETDuet); alone: purified on nickel magnetic beads; not shown: His6, N-terminal, kept
B2: FLAG–Spa2(200–360) (domain or fragment, S. pombe, UniProt O42869 200-360, looked up)
chain: NTVQANNSSTSSLSQGAQTGIDSSSNYLSRIEMLESSLAKSNSLLDSSKSEMEALKAKSISDATKHKNEIFQLEEKLHEASHEAEISIKKLNDAENRIKELENNPTLSFNPELEKNLKLMQELIVAESSKTQHIVELESCIDSLKAETERWKKVAINAKSA
notes: also called Spa2(200–360)–FLAG

Legend:
FLAG–Spa2(200–360) = target: B2; test: pull-down; co-purification: His6–Pos1 and FLAG–Spa2(200–360) co-produced in bacteria with a dual expression system, purified on DYKDDDDK Fab-Trap agarose, eluted with 3×FLAG peptide; SDS-PAGE, Coomassie Blue; details: partners not purified
His6–Pos1 = target: B1; test: SEC; Superose 6 10/300 GL, 0.5 ml/min, 4°C, 10 mM Tris-HCl pH 7.5, 150 mM NaCl, 0.5 mM EDTA; each protein alone or the co-purified complex; sizes estimated from calibration standards; details: both partners purified
MBP–Pos1 = target: T1, MBP–Pos1 (S. pombe, UniProt O13743 1-269); test: pull-down; GST proteins left on beads, incubated with eluted MBP proteins in GST buffer for 40 min at 4°C; washed three times; SDS-PAGE, Coomassie Blue; details: both partners purified
T1 construct: Pos1, S. pombe; source: Rosetta2(DE3)pLysS bacteria, purified on amylose beads, eluted with 10 mM maltose; not shown: MBP, N-terminal, kept
T1 sequence (looked up): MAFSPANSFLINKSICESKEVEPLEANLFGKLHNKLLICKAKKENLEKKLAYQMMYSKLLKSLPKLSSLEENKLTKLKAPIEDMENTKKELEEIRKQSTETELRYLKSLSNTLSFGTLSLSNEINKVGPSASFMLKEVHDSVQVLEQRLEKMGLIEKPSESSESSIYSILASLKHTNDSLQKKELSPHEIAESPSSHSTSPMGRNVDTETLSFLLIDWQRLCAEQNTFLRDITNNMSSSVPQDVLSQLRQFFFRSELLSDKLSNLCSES

Binder: B1
stoichiometry N (FLAG–Spa2(200–360)): ~1

Binder: B2
binding result (His6–Pos1): binds

binding result (MBP–Pos1): binds
B3: GST–Spa2(305–360) (domain or fragment, S. pombe, UniProt O42869 305-360, looked up)
chain: TLSFNPELEKNLKLMQELIVAESSKTQHIVELESCIDSLKAETERWKKVAINAKSA
notes: not shown: GST, N-terminal, kept
